Bridge positions count the residues as written; N and C are the ends. Ends that are not written are not given here. Peptide text beside a SMILES is read from it. I, II: the chains in the order shown.
What was measured:
[1] = target: T1, chimeric IL-5Rα/EGFR receptor (Homo sapiens, UniProt P00533+Q01344); experiment: chimeric IL-5Rα/EGFR luciferase reporter cell assay in Ba/F3 cells; type: cell-based; conditions: for luciferase activity of Ba/F3 cells expressing the chimera: serial dilutions, 4 hr
T1 construct: A chimeric receptor consisting of the IL-5Rα ECD fused to the transmembrane spanning and intracellular domains; expressed in transfected cells; host or cells: Ba/F3 cells with c-fos enhancer/TK promoter luciferase reporter
T1 sequence (Q01344+P00533 fused, stated change not applied): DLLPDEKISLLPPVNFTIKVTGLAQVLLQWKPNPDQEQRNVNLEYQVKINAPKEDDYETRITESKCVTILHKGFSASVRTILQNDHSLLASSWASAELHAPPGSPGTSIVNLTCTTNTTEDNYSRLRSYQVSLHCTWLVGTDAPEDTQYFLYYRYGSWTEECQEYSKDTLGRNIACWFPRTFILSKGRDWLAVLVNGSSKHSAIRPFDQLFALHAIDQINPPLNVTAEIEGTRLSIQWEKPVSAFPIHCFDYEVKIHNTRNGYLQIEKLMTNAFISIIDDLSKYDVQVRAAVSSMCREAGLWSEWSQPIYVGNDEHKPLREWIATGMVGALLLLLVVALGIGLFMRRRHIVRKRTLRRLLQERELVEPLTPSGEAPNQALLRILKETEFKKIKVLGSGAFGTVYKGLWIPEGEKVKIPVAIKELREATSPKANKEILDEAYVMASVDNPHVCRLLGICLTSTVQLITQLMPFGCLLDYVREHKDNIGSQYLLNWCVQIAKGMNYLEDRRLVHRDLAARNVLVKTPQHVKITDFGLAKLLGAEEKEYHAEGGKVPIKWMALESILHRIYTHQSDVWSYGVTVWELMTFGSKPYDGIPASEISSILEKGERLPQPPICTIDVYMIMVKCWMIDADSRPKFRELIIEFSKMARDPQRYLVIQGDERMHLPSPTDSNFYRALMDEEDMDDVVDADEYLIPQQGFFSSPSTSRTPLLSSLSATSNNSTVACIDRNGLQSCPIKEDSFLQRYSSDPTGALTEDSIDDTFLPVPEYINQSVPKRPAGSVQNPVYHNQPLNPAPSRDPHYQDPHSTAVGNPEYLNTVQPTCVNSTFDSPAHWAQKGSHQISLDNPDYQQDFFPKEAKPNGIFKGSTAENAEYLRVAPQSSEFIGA
From the text: A system comprising a chimeric IL-5R-α/EGFR reported cell assay was designed to analyze receptor binding stoichiometry in a cellular context. A chimeric receptor consisting of the IL-5Rα ECD fused to the transmembrane spanning and intracellular domains of the epidermal growth factor receptor (EGFR) was constructed, and stably expressed in Ba/F3 cells that also contained a luciferase reporter gene under the transcriptional control of the c-fos enhancer and minimal thymidine kinase promoter.
In the assay, Ba/F3 cells expressing a chimeric IL-5Rα/EGFR receptor and containing a luciferase reporter gene were starved overnight of the WEHI conditioned medium in which they were maintained, then seeded into microtiter wells at a density of 10^5 cells/well. Following stimulation, the cells were incubated for 4 hr at 37° in a 5% CO2 incubator. LucLite reagent (Packard) was then added to the wells according to the manufacturer's instructions and the plates were assayed for luciferase activity by counting in a Topcount instrument (Packard). Data points represent mean±SEM for 3 separate experiments performed in triplicate. The data has been normalized to the stimulation induced by 1 μM AF18748 in each experiment.

IL-5RαECD = IL-5RαECD (Homo sapiens, UniProt Q01344); conditions: AF18748 over 10 pM to 1 nM; binding decreases above 1 nM
Procedure: A “sandwich” binding assay using microvolume fluorimetry (Martens et al., Anal. Biochem., 273:20 (1999)) was used to measure the ligand dependent association of two receptor proteins. IL-5RαECD (the extracellular domain (ECD) of the human IL-5 receptor a chain) was immobilized onto 10 μm beads and incubated with soluble, fluorescently labeled IL-5Rα ECD in the presence or absence of IL-5 or peptide.
Fluorescently labeled mAb 179 was prepared using Cy5 monofunctional reactive dye (Amersham) according to the manufacturer's instructions. (As disclosed in Martens et al., supra, Cy5.5 dye is also suitable.) Fluorescent mAb179:IL-5Rα ECD complexes were formed by preincubating the labeled antibody with an equimolar amount of receptor ECD in phosphate buffered saline (PBS) for 1 hr at room temperature. Mono A 10 μm polystyrene beads (Pharmacia) were coated first with biotinylated bovine serum albumin, then sequentially with streptavidin, biotinylated mAb179, and IL-5Rα ECD. […]
The binding reactions were incubated in microtiter plates overnight at room temperature, then microvolume fluorimetry measurements of bead-associated fluorescence were made using an FMAT instrument (Perkin-Elmer).

IL-5Rα ECD [2] = target: T2, IL-5Rα ECD (Homo sapiens, UniProt Q01344); experiment: gel filtration chromatography of IL-5Rα ECD with peptide; set-up: IL-5RαECD=ECD of the human IL-5 receptor a chain
T2 sequence (Q01344 21-342 limits assumed): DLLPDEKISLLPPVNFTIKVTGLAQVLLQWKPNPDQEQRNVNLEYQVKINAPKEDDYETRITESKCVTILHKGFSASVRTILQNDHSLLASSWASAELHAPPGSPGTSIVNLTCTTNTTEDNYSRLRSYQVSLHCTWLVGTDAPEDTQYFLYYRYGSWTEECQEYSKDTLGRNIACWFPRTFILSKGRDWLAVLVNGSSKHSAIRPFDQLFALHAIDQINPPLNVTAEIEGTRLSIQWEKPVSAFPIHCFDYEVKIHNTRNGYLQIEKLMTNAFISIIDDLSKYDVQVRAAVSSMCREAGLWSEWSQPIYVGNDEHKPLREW
Procedure: Secondly, the ability of peptides to induce receptor dimerization was studied using gel filtration chromatography. Gel filtration chromatography was performed on a Pharmacia Smart system using a Precision Superdex 200 3.2/30 column at 25° C. with a flow rate of 10 μl/min. The buffer was 50 mM Tris pH 7.5, 0.5 M NaCl. The column was calibrated using the Biorad Gel filtration molecular weight standards which contain Thyroglobulin, 670 KD; Bovine gamma globulin, 158 KD; Chicken ovalbumin, 44 KD; Equine myoglobin, 17 KD; Vitamin B12, 1.35 KD. […] Results shown are from a single experiment, representative of three separate runs for each condition.

[3] = target: T3, native IL-5R α/β complex on TF-1 cells (Homo sapiens, UniProt Q01344); experiment: competition binding of [125I] IL-5 to TF-1 cells; conditions: read-out: IC50, inhibition of binding of [125I] IL-5 to TF-1 cells
T3 construct: endogenous in cells; host or cells: TF-1 cells
T3 sequence (Q01344 21-420): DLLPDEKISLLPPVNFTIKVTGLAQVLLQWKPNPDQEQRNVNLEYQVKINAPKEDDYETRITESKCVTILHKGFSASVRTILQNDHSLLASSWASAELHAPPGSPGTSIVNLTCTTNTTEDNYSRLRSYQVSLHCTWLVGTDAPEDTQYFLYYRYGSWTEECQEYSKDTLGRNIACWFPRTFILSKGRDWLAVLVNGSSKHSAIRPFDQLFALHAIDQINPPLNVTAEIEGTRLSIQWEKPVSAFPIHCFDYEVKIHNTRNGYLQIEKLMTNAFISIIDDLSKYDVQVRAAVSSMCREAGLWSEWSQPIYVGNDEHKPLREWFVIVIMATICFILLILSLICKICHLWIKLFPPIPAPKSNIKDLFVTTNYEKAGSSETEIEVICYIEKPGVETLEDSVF
Procedure: The ability of AF18748 to bind to the native IL-5R α/β complex on TF-1 cells was assessed in a competition binding assay (as described in McKinnon et al., J. Exp. Med 186: 121 (1997)). The binding of [^125I]

human eosinophils = type: cell-based
Procedure: The functional activity of AF18748 was assessed in a human eosinophil adhesion assay (following the method of […], et al, Cytokine 8:248 (1996)). […] AF18748 is therefore a potent and selective antagonist of IL-5 in a human eosinophil functional assay.

IL-5Rα ECD [4] = target: T2, IL-5Rα ECD; experiment: biochemical
Procedure: Binding affinities of synthetic peptides for IL-5Rα were measured in a competition binding assay using radio-iodinated IL-5. Immulon 4 (Dynatech) microtiter wells were coated with streptavidin (Sigma) by incubating 100 μl of a 50 μg/ml solution in PBS for 30 min. at 37°. The wells were blocked with 200 μl of 1% BSA in PBS for 15 min. at 37°, followed by 100 μl of biotinylated monoclonal antibody, designated mAb 179, at 5 μg/ml in PBS. Soluble IL-5Rα was then immobilized in the wells by incubating 100 μl of a solution of soluble receptor harvest diluted 1:5000 in PBS/0.1% BSA for 1 hr. at 4°. After washing away unbound receptor, 50 μl of various concentrations of test peptide diluted in PBS/0.1% BSA were added to the wells, followed by 50 μl of a fixed concentration of [^125I] IL-5 (Amersham). The binding reactions were incubated at 4° C. for 2 hr, then washed with PBS to remove unbound [^125I] IL-5. Bound [^125I] IL-5 was determined by gamma counting. Total binding was defined by the amount of [^125I] IL-5 bound in the absence of any competitor. Non-specific binding was defined by the amount of [^125I] IL-5 bound in the presence of 30 nM IL-5. Peptide binding data was analyzed to determine the peptide concentration required to reduce specific [^125I] IL-5 binding by 50% (IC50).

human IL-5 receptor = target: T4, human IL-5 receptor (Homo sapiens, UniProt Q01344); conditions: HL60 subclone, sodium butyrate induced; read-out: Kd of IL-5 binding sites; cited from earlier work
T4 construct: host or cells: HL60 subclone induced towards eosinophil differentiation with sodium butyrate
T4 sequence (Q01344 21-420): T3 sequence (Q01344 21-420)
T4 sequence (P32927 17-897 partner): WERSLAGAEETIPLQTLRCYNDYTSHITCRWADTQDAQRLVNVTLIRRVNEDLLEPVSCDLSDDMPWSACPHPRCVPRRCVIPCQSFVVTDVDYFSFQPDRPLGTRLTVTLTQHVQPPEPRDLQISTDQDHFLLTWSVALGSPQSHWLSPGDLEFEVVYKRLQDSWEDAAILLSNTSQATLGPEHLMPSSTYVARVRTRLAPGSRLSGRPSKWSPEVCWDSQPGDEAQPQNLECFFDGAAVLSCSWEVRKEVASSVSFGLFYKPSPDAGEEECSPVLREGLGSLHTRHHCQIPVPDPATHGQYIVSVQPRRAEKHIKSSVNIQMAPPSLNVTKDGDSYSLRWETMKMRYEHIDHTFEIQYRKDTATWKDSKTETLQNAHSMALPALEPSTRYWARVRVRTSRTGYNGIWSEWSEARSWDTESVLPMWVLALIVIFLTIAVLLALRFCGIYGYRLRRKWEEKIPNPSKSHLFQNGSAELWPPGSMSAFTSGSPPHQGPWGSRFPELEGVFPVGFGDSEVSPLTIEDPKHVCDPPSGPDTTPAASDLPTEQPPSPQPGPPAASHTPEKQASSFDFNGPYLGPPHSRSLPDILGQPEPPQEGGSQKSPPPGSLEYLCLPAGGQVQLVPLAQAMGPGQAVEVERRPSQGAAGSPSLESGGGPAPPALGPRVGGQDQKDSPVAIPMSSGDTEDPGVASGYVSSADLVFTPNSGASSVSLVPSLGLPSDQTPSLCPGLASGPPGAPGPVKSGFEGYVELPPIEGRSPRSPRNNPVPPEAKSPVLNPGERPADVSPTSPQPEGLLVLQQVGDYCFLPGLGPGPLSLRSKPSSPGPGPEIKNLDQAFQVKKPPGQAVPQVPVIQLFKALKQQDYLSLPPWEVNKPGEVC

[5] = IL-5Rα ECD with equimolar peptide, Superdex 200

Compound	basal level of luciferase expression in unstimulated cells [1]	luciferase activity of Ba/F3 cells expressing the chimera [1]	association of fluorescently labeled IL-5Rα ECD to IL-5RαECD-coated beads (IL-5RαECD)	Receptor State (IL-5Rα ECD [2]; IL-5Rα ECD with equimolar peptide)	Calculated MW (IL-5Rα ECD [2]; [5]) [kDa]	Elution Volume (IL-5Rα ECD [2]; [5])	effect on elution / apparent size of IL-5Rα ECD (IL-5Rα ECD [2]; gel filtration)	IC50 [3] [nM]	IC50 (human eosinophils) [nM]	IC50 (IL-5Rα ECD [4]) [nM]	effect on activation of the luciferase reporter by AF18748 ([1]; 200 pM AF18748, increasing concentrations of IL-5)	Kd (human IL-5 receptor) [nM]
VDECWRIIASHTWFCAEE (disulfide 4-15 (inferred)) [AF17121]	reduced basal level of luciferase expression	no effect	did not mediate the association of labeled receptor with the beads	Monomer	89.5	1.425	no effect on the elution of the receptor	–	–	–	–	–
CC(C)[C@H](NC(=O)[C@H](CSSC[C@H](NC(=O)[C@@H](NC(=O)[C@H](Cc1ccc(O)cc1)NC(=O)CNC(=O)[C@H](CC(=O)O)NC(=O)CNC(=O)CNC(=O)CNC(=O)[C@@H](N)[C@@H](C)O)C(C)C)C(=O)N[C@H](C(=O)N[C@@H](CCC(=O)O)C(=O)N[C@@H](Cc1c[nH]c2ccccc12)C(=O)N[C@@H](C)C(=O)N[C@@H](CCCNC(=N)N)C(=O)N[C@H]1CSSC[C@@H](C(=O)N[C@@H](CCCCN)C(=O)O)NC(=O)[C@H]([C@@H](C)O)NC(=O)[C@@H]2CCCN2C1=O)C(C)C)NC(=O)[C@@H](NC(=O)[C@H](Cc1ccc(O)cc1)NC(=O)CNC(=O)[C@H](CC(=O)O)NC(=O)CNC(=O)CNC(=O)CNC(=O)[C@@H](N)[C@@H](C)O)C(C)C)C(=O)N[C@@H](CCC(=O)O)C(=O)N[C@@H](Cc1c[nH]c2ccccc12)C(=O)N[C@@H](C)C(=O)N[C@@H](CCCNC(=N)N)C(=O)N[C@H]1CSSC[C@@H](C(=O)N[C@@H](CCCCN)C(=O)O)NC(=O)[C@H]([C@@H](C)O)NC(=O)[C@@H]2CCCN2C1=O [AF18748] (I: H-TGGGDGYVCVEWARCPTCK-OH / II: H-TGGGDGYVCVEWARCPTCK-OH; disulfide I:9-II:9, I:15-I:18, II:15-II:18)	–	–	–	–	–	–	–	0.4 ± 0.04	0.348 ± 0.067	0.78	–	–
IL-5: Interleukin 5, natural ligand, disulfide linked homodimer	reduced basal level of luciferase expression	no effect	did not mediate receptor association	–	–	–	–	–	–	–	antagonized	0.03

Reference: patent US7109299B1, “Peptides and compounds that bind to the IL-5 receptor” (Affymax, Inc., priority 1999, dated 2006)
